Test results as given in the Human Domainome abundance scans (Beltran et al. 2025).

B1: Chromodomain-helicase-DNA-binding protein 4, residues 623 to 675; numbered along this chain, Q14839 (parent)
chain: MIHRILNHSVDKKGHVHYLIKWRDLPYDQASWESEDVEIQDYDLFKQSYWNHR

Variants of: B1
Assay: abundance fitness (aPCA) (normalised: wild type 0, dead -1); higher = more abundant; growth selection in yeast, the domain comes from the species named
Conditions: Homo sapiens

Abundance fitness: each site, then its substitutions
W32: C -0.783; R -0.724; E -0.737; T -0.955; G -0.88; V -0.732; A -0.997
I39: F 0.139; R -0.756; W -0.818; H -0.39; D -0.992; G -0.847; T -0.72; L 0.026; C -0.753; M -0.462; K -0.879; N -1.06; Y -0.195; A -0.805; S -0.745; Q -0.764; E -1.02; P -0.897; V -0.722
Q40: A -0.052; Y -0.504; V -0.131; R -0.161; K 0.041; T -0.036; H -0.122; P -0.061; E -0.061; C -0.043; D -0.047; W -0.549; F -0.548; M -0.14; S -0.286; L -0.271; I -0.252
D41: T -0.892; C -0.807; S -0.481; G -0.283; M -0.79; N -0.151; V -0.81; R -0.863; Q -0.191; K -0.555; W -0.529; I -0.929; Y -0.431; E -0.507; L -0.846; H -0.459; F -0.331
N51: I -0.564; L -0.194; D 0.01; K -0.167; A 0.014; C -0.428; F -0.11; H -0.23
E38: G -0.227; Q -0.018; I -0.122; Y -0.337; H -0.324; C -0.144; D -0.175; T -0.187; L -0.199; S -0.157; R -0.37; P -0.2; N -0.472; V -0.217; M -0.095; W -0.257; F -0.113
L44: S -0.015; Q -0.11; A -0.014; W -0.302; V 0.074; M 0.085; N -0.131; G -0.342; P -0.91; H -0.034; E -0.211; Y -0.089; K 0.111; R 0.058; D -0.16; C -0.293; F -0.201
Y49: A -0.783; T -0.916; S -0.953; F -0.7; R -1; V -0.877; I -1.13; M -0.747; K -0.658; Q -0.997; C -1.01; P -0.696; W -0.951; G -0.811; L -0.751
S34: Q -0.111; A -0.103; C 0.155; I -0.852; F -0.618; L -0.411; N -0.137; R -0.081; M -0.441; P -0.022; G -0.106; Y -0.731; T -0.377; E -0.004; K 0.086; H 0.136
K46: I -0.465; F -0.917; H -0.909; E -0.734; N -0.886; S -0.838; L -0.593; D -0.886; Y -0.856; G -0.846; Q -0.485; P -0.875; T -0.748; A -0.898; R -0.796; W -0.856
D36: V -0.833; Q -0.415; K -0.073; E -0.102; L -0.402; C -0.363; P -0.909; A -0.455; W -0.37; R -0.255; H -0.105; T -0.2; S -0.079; M -0.372; N 0.134; F -0.267; G -0.299; I -0.915
